According to patent publication US20250327097A1, “ORGANISMS PRODUCING LESS CROTONIC ACID” (Global Bioenergies, priority 2021, published 2025):

B1: I283T-P284D-i284aP-N287P-S322T-N388M-C430N-L432F-L434W-S436N-H461A-dG462-A463T (protein)
chain: MFLKSLREQINLLKRQGDLRIINRPVDSYLEAAAIIRRSTETKAPVPLMTNIKGYPGCSIVGGLAALSSNPEYPLSRVAMSLGLSTTASAQSIVQYLIDGLKKTPYLPVEIDSNSAPCKQNILRGEDASLAHFPIPQVHQHDGNRYVNTWGVFIVESPDGQWCNWSIQRVQYLNDRQMIALVFPSQHISDIWEEWVKIGKPMPYALVQGCEPIVPYIAGLPLLERNVNEAEYIGALYGKGIEVVKCETHDLRVPASSEVVIEGYFAITREGVEGPFGEFAGYTDNEPSLQPILSITAISWQDDPIWPVVAEGKPVDEYHTCTGIGDAAAIQNVLLTANLPVSFVWVPLYSACHLMIVSINRHWRQTHPDLTSEQLTKKVGDVIHQTRMSIKLPKIVVLDDDVDPADTESLLWALATRIHPERKRYFYESNIFPWLNCYSEEERHNRKGKRVIIDALLPENAGTISSFDYAYPDDIKQRVLMHWETDFSHD
B2: I283T-P284D-i284aP-N287P-S322T-N388M-C430N-L432F-L434W-S436N-H461A-dG462 (protein)
chain: MFLKSLREQINLLKRQGDLRIINRPVDSYLEAAAIIRRSTETKAPVPLMTNIKGYPGCSIVGGLAALSSNPEYPLSRVAMSLGLSTTASAQSIVQYLIDGLKKTPYLPVEIDSNSAPCKQNILRGEDASLAHFPIPQVHQHDGNRYVNTWGVFIVESPDGQWCNWSIQRVQYLNDRQMIALVFPSQHISDIWEEWVKIGKPMPYALVQGCEPIVPYIAGLPLLERNVNEAEYIGALYGKGIEVVKCETHDLRVPASSEVVIEGYFAITREGVEGPFGEFAGYTDNEPSLQPILSITAISWQDDPIWPVVAEGKPVDEYHTCTGIGDAAAIQNVLLTANLPVSFVWVPLYSACHLMIVSINRHWRQTHPDLTSEQLTKKVGDVIHQTRMSIKLPKIVVLDDDVDPADTESLLWALATRIHPERKRYFYESNIFPWLNCYSEEERHNRKGKRVIIDALLPENAGAISSFDYAYPDDIKQRVLMHWETDFSHD
B3: E126K-H141Q-I283T-N285P-N287T-Q290E-S322T-N388M-K394R-C430A-L432F-L434W-S436N-dG462 (protein)
chain: MFLKSLREQINLLKRQGDLRIINRPVDSYLEAAAIIRRSTETKAPVPLMTNIKGYPGCSIVGGLAALSSNPEYPLSRVAMSLGLSTTASAQSIVQYLIDGLKKTPYLPVEIDSNSAPCKQNILRGKDASLAHFPIPQVHQQDGNRYVNTWGVFIVESPDGQWCNWSIQRVQYLNDRQMIALVFPSQHISDIWEEWVKIGKPMPYALVQGCEPIVPYIAGLPLLERNVNEAEYIGALYGKGIEVVKCETHDLRVPASSEVVIEGYFAITREGVEGPFGEFAGYTPPETSLEPILSITAISWQDDPIWPVVAEGKPVDEYHTCTGIGDAAAIQNVLLTANLPVSFVWVPLYSACHLMIVSINRHWRQTHPDLTSEQLTKKVGDVIHQTRMSIKLPRIVVLDDDVDPADTESLLWALATRIHPERKRYFYESAIFPWLNCYSEEERHNRKGKRVIIDALLPENHGAISSFDYAYPDDIKQRVLMHWETDFSHD
B4: P184S-I283T-N285P-N287T-Q290E-S322T-N388M-K394R-C430A-L432F-L434W-S436N-dG462 (protein)
chain: MFLKSLREQINLLKRQGDLRIINRPVDSYLEAAAIIRRSTETKAPVPLMTNIKGYPGCSIVGGLAALSSNPEYPLSRVAMSLGLSTTASAQSIVQYLIDGLKKTPYLPVEIDSNSAPCKQNILRGEDASLAHFPIPQVHQHDGNRYVNTWGVFIVESPDGQWCNWSIQRVQYLNDRQMIALVFSSQHISDIWEEWVKIGKPMPYALVQGCEPIVPYIAGLPLLERNVNEAEYIGALYGKGIEVVKCETHDLRVPASSEVVIEGYFAITREGVEGPFGEFAGYTPPETSLEPILSITAISWQDDPIWPVVAEGKPVDEYHTCTGIGDAAAIQNVLLTANLPVSFVWVPLYSACHLMIVSINRHWRQTHPDLTSEQLTKKVGDVIHQTRMSIKLPRIVVLDDDVDPADTESLLWALATRIHPERKRYFYESAIFPWLNCYSEEERHNRKGKRVIIDALLPENHGAISSFDYAYPDDIKQRVLMHWETDFSHD
B5: L223Y-I283T-N285P-N287T-Q290E-S322T-N388M-K394R-C430A-L432F-L434W-S436N-dG462 (protein)
chain: MFLKSLREQINLLKRQGDLRIINRPVDSYLEAAAIIRRSTETKAPVPLMTNIKGYPGCSIVGGLAALSSNPEYPLSRVAMSLGLSTTASAQSIVQYLIDGLKKTPYLPVEIDSNSAPCKQNILRGEDASLAHFPIPQVHQHDGNRYVNTWGVFIVESPDGQWCNWSIQRVQYLNDRQMIALVFPSQHISDIWEEWVKIGKPMPYALVQGCEPIVPYIAGLPLYERNVNEAEYIGALYGKGIEVVKCETHDLRVPASSEVVIEGYFAITREGVEGPFGEFAGYTPPETSLEPILSITAISWQDDPIWPVVAEGKPVDEYHTCTGIGDAAAIQNVLLTANLPVSFVWVPLYSACHLMIVSINRHWRQTHPDLTSEQLTKKVGDVIHQTRMSIKLPRIVVLDDDVDPADTESLLWALATRIHPERKRYFYESAIFPWLNCYSEEERHNRKGKRVIIDALLPENHGAISSFDYAYPDDIKQRVLMHWETDFSHD
B6: V227Y-I283T-N285P-N287T-Q290E-S322T-N388M-K394R-C430A-L432F-L434W-S436N-dG462 (protein)
chain: MFLKSLREQINLLKRQGDLRIINRPVDSYLEAAAIIRRSTETKAPVPLMTNIKGYPGCSIVGGLAALSSNPEYPLSRVAMSLGLSTTASAQSIVQYLIDGLKKTPYLPVEIDSNSAPCKQNILRGEDASLAHFPIPQVHQHDGNRYVNTWGVFIVESPDGQWCNWSIQRVQYLNDRQMIALVFPSQHISDIWEEWVKIGKPMPYALVQGCEPIVPYIAGLPLLERNYNEAEYIGALYGKGIEVVKCETHDLRVPASSEVVIEGYFAITREGVEGPFGEFAGYTPPETSLEPILSITAISWQDDPIWPVVAEGKPVDEYHTCTGIGDAAAIQNVLLTANLPVSFVWVPLYSACHLMIVSINRHWRQTHPDLTSEQLTKKVGDVIHQTRMSIKLPRIVVLDDDVDPADTESLLWALATRIHPERKRYFYESAIFPWLNCYSEEERHNRKGKRVIIDALLPENHGAISSFDYAYPDDIKQRVLMHWETDFSHD
B7: N287Q-N388M-K394R-C430N-L432F-L434W-S436N (protein)
chain: MFLKSLREQINLLKRQGDLRIINRPVDSYLEAAAIIRRSTETKAPVPLMTNIKGYPGCSIVGGLAALSSNPEYPLSRVAMSLGLSTTASAQSIVQYLIDGLKKTPYLPVEIDSNSAPCKQNILRGEDASLAHFPIPQVHQHDGNRYVNTWGVFIVESPDGQWCNWSIQRVQYLNDRQMIALVFPSQHISDIWEEWVKIGKPMPYALVQGCEPIVPYIAGLPLLERNVNEAEYIGALYGKGIEVVKCETHDLRVPASSEVVIEGYFAITREGVEGPFGEFAGYIPNEQSLQPILSITAISWQDDPIWPVVAEGKPVDEYHTCSGIGDAAAIQNVLLTANLPVSFVWVPLYSACHLMIVSINRHWRQTHPDLTSEQLTKKVGDVIHQTRMSIKLPRIVVLDDDVDPADTESLLWALATRIHPERKRYFYESNIFPWLNCYSEEERHNRKGKRVIIDALLPENHGAISSFDYAYPDDIKQRVLMHWETDFSHD

Each molecule was assayed on 3-methylcrotonic acid.
Type: biochemical, Yersinia frederiksenii
Set-up: key: “+” representing a low increase in activity; “++++” representing a high increase in activity

Molecule	Activity relative to WT
B1	++++
B2	++++
B3	++++
B4	++++
B5	++++
B6	++++
B7	+
